Data reported in the DeepSol protein solubility set.

Test: soluble on expression in E. coli; label from the status in PepcDB or PDB records

Sequence	soluble on expression in E. coli
MAHILLIPANSPFVVTGALSAKVSTVEEFAQKHRAFAIFNAGFFDPANQKSTSYVVVTGQMVADPKDNERLVNNPQLKPYLNLIFNRSEFRRYLCGQTTRYDITLHNESPPANCRLVDAIGAGPRLLPKLTSVPEGFVDNAKGRDALLSKQLNARTAVGITSEGSIILVMVAQKPSKPKNSGISLVQLADLMKKLGASAAMNLDGGSSSSLYYNGKAFYGKFDLQGNPIKRKVKSVLLVQENVRNLEHHHHHH	not soluble
MAHKGTESKEQIWPYKITIGICAMNRKATSKPMRAIMKKIIDFYGQWVDSFIFPEQVIINEPVENWPLCHCLVSFHSTEFPLEKAIAYVKLRNPYVINNLDRQYDLLDRRTVFKILSDNGIEHPRHGYVIRGRPNEPDTELVEHPDHIEVNGEVFNKPFVEKPISSEDHNVYIYYPSSVGGGSQRLFRKINNRSSWYSPKSEVRKEGSYIYEEFIPADGTDVKVYAVGPFYAHAEARKAPGLDGKVERDSDGKEVRYPVILSNKEKQIAKKIVLAFGQTVCGFDLLRANGKSYVCDVNGFSFVKTSTKYYEDTAKILGNQIVRHYAKSKNWRVPSDMPQPPILDLGLGDDPPMITTPSGKLAELRCVVAVIRHGDRTPKQKMKLIVTDQRFFALFEKYDGYKKHEIKMKKPNQLMEVLELARALVIEKQRDRHQILEKLREGTGEEEIHKSEHDLEVCEEEMKKWEQMRTVLEMYGHFSGINRKVQMKYLKERETKTSDEELRREGPALLLILKWGGELTTAGNMQAEALGRLFRTLYPGIRRTDGKSSPEDTQGLGFLRLHSTYRHDLKIYASDEGRVQTTAAAFAKGLLALEGELTPILMQMVKSANTDGLLDDDCQARLYQTELKRYLHKALQADRDFTPQDYLELNPNGLRAITAAMEFIKNPRKMCHEIAGYVEKMCGVIVEYSQTRPTGSTLYLQESMDLAQRRWNKELREFRRKNKHGEVEFDISKIPDIYDNIKYDMEHNPDLCINNEVEFERMYVCVKNMADIVVPQEYGIKTENKMVIAQRVCTPLLRKIRNDLHRCLENKESEETQTRLDPRASQGIATPFRHVRTRLYFTSESHIHTLMNLIRYGNLCSVDDKKWQRAMNFLSGVTEFNYMTQVVLMVYEDSRKENDEADTGPRFHIEILFSPGLYPCFLTEKERIYETRFNLSTNPKPATSSRSSGRESRDTNDSASSSTEGRRPSIEKVVTVVTPTQLSTPSVTNDDLSISSNAESTAAESTGLVNTTTKTHNDSEDDLNDVESVNLVALDELNNTTKASQRGSFHVTEPIQIDEKTRRYFPYRFKHHTAQLLTGMSGGGVHMQNRLISTDVLTGKFGDHDNKKNSRKDFGAGTAVLSTAVIARSSSAPRLMTYESEDFSVGEIKRFWPPLRSLETLHDSINLSQFDGFLERLIKGALTPLPSPPKTPLPSALSCDAINKTPTQDEVEKVIGKLAPTSSTD	not soluble
MAHQEHFQFGYRRHRDQDRQDPARHPVVVVGAGPVGLSLAIDLAQRGQNVVLLDDADRIGEGSRAICFSKRALEVWDRLGVGAQMVEKGVVWQVGKIFRRDEMVYRFDLLPETGHKMPAFINLQQYYAEAFLVGRVQQLPQIDLRWRNKVTALAQHNDHAELTIETPDGPYRLAADYVIACDGARSSLRGMVGAEFAGEVFEDQFLIADVKMTAAFPTERWFWFDPPFHSGQSALLHRQPDDVWRIDLQIGPEADAAVERQPERVRPRIERMLGHGDFSFEWISIYKFQCRRMQRFLHERVIFAGDSAHQVSPFGARGANSGLEDGENLAWKLDLVLRGQAPASLLDSYDIERSQAADDNIRHSTRSTDFIAPHSKQERRLRDAVLALAHDVEFAKRMVNAGRLSTPSVYQSSLSTDDVDVWSSGPVPGAAMRDAPLRAADGTLVYLTEAFMQAGGGFVLLERANGAAAPVPQGVRSLRIGGDAPLRDDEGVFAARYDATPGAAYLLRPDGYVAARFRHPTQAAVDAALARACGRLEHHHHHH	not soluble
MAHRKTTTKNGNGGTLGFEAELFKAADKLRGNMEPSDYKHVALGLIFLKYISDAFEAKHSALLAEDAQAAEDKDEYLAHNVFWVPKQARWSHLKANAKQSTIGTLIDEAMRDIEKDNPSLKHVLPKDYARPALNKVMLGELIDLISGIALNEEGARSKDILGRVYEYFLGQFAGAEGKRGGEFYTPRSVVRVLVQMLEPYSGRVYDPCCGSGGMFVQSEKFVLEHGGRIGDIAIYGQESNYTTWRLAKMNLAVRGIDSDIRWNNEGSFHNDALRDLKADYILANPPFNISDWGGDRLREDVRWKFGVPPAGNANYAWLQHIYHHLAPNGTAGVVLANGSMSSNHSGEGEIRTHMIEADIVDCMIAMPGQLFYSTQIPACLWFLARNKNPGKGLRDRRGQVLLMDARALGVLVDRTRRELTDEHIQQIADTYHAWRGEQGAAAYADVAGFCKSATLEDIRKQGYVLTPGRYVGAVEREDDGEPFPQKMQRLSAQWRAQRAAAAKLDAAIAANLKELGYGG	soluble
MAIDFNAMPPSTWAENLARNQLSKLQTQLDTQTKSAKARTDALSQLQKALQDYKSSLATLTGKKSLVAMNAAATPDGMASVTAKGNAAAGNYSVFVEQLASSQQ	not soluble
MAIDVLDVISLSLFKQQIEFEEDDRDELITLYAQAAFDYCMRWCDEPAWKVAADIPAAVKGAVLLVFADMFEHRTAQSEVQLYENAAAERMMFIHRNWRGKAESEEGS	soluble
MAIIYAVRERTQSKTAMRKVMDYVVQDKKTMYENENGQRCKLVSGQNCCGDTAFKEFMTTKRQYQKEKGVYFYQYIQSFKPGIHATPQEIHQMGVELAKYFKGYEVQIATHIDRDHWHNHLIVNSVSCETGLKLQFNEKNLEQLRTLSDEICAVHGLDTLKPYQKPKQKPMGAGEYRAAVRGGSYKFKLMNAIDQAMTQSRTREEFIVRMEQMGYQVKWNPHHKYITYTTPEGQRCRDNKLHETKYLKTEMEGYFSAKLRRIEAAQQAGYTGGHPTGTTPADRSSALSAAGQRNTHRPMEHDAGEPDRSHTAVAGIDGIHIHPANRRRRKQYDEELLPERLRQADGSPVEYHTERASADYGEYDFEYGEDDGYDWMEADEYTGALGRKAPAPGHVAHKNESQMGRHRGIDFDDIVALAKAVDDLVNPYNPEEEREKKKKYVPKSDHKKQKKKQHHNHDYELSL	soluble
MAIKLIAIDMDGTLLLPDHTISPAVKNAIAAARARGVNVVLTTGRPYAGVHNYLKELHMEQPGDYCITYNGALVQKAADGSTVAQTALSYDDYRFLEKLSREVGSHFHALDRTTLYTANRDISYYTVHESFVATIPLVFCEAEKMDPNTQFLKVMMIDEPAILDQAIARIPQEVKEKYTVLKSAPYFLEILDKRVNKGTGVKSLADVLGIKPEEIMAIGDQENDIAMIEYAGVGVAMDNAIPSVKEVANFVTKSNLEDGVAFAIEKYVLN	not soluble
MAIKVGINGFGRIGRSFFRASWGREEIEIVAINDLTDAKHLAHLLKYDSVHGIFKGSVEAKDDSIVVDGKEIKVFAQKDPSQIPWGDLGVDVVIEATGVFRDRENASKHLQGGAKKVIITAPAKNPDITVVLGVNEEKYNPKEHNIISNASCTTNCLAPCVKVLNEAFGVEKGYMVTVHAYTNDQRLLDLPHKDFRRARAAAINIVPTTTGAAKAIGEVIPELKGKLDGTARRVPVPDGSLIDLTVVVNKAPSSVEEVNEKFREAAQKYRESGKVYLKEILQYCEDPIVSTDIVGNPHSAIFDAPLTQVIDNLVHIAAWYDNEWGYSCRLRDLVIYLAERGL	soluble
MAILKAQHLAKSYKKRKVVSDVSLQVESGQIVGLLGPNGAGKTTSFYMIVGLVARDEGTITIDDNDISILPMHSRSRMGIGYLPQEASIFRKLSVEDNIMAVLQTREELTHEERQDKLEDLLEEFHIQHIRKSAGMALSGGERRRVEIARALAANPQFILLDEPFAGVDPISVIDIKKIIEHLRDRGLGVLITDHNVRETLDVCEKAYIVSQGRLIAEGTPQDVLNNEQVKQVYLGEQFRL	not soluble
MAIMRVNPTRMELTRLKKRLQVARRGHKLLKDKLDELMKQFLDLVRKNKELREKVEEMLMKAHQDFLIARAVMSSEGLEAALMLPKQSISLDVSTQNIMSVEVPVLKFTTSSSDESDIYPYGFASTSGELDGAILTLSKVLPYMLELAQMEKSSQLLAQEIEKTRRRVNALEYVMIPQLTETIKYISMKLDENERGNITRLMKVKDMMLEQAHNFKEKLNEA	soluble
MAIQTVSTKPFANQKPGTSGLRNKVIAFQQPRYLENFVQSIFNSLDDIEGKTLVVGGDGRYYNDVAIQIIVRMAAANGFAKIIVGQNGIFSTPAVSCVIRKYEAFGGIVLSASHNPGGPKGDFGIKYNVSNGGPAPEKITDRIFSETKKINQYFISDAAKESVDLDKLGTYKIENTTVEVINSVIDYAELMQQIFDFDKVRELFAKGFKVRFDSMCAVSGPYAKYIFETLLKAPAGTVVNAQPLEDFGGFHPDPNPVNAEDLVKHMRSGKYDFGAASDGDADRNMIVGKQIDVSPSDSLAIMAANAHLIPVYSKGIKGVARSMPTSTAVDRVAESLRLPCFETPTGWKFFGNLLDAEKITLCGEESYGTGSNHIREKDGVWAVLFWLNLVAVTGKQVDQLVEEHWQKFGRNFYSRHDYEAIDTAIANSIIDSLRERLSSLVGAQLNDEKVAKADDFSYIDPIDGLVSNHQGIRIIFEDGSRIVFRLSGTGTQGATLRIYLEKYESDSSKFSIPTQQALASLIEIAEDLTNIKSLTGMTEPTVVT	not soluble
MAIYYNGLKIESNEEVYEPAEDTFLLAESLLDEVKSDDIVLDVGTGTGILALLAARRARFVVGLDINEKAINLAWKNAKINGIKNVVFILSDLFENIRGTFDLIVFNPPYLPGEEIKDKVDLALIGGKTGGEVISRFLGSVKDYLSSRGRILLIYSSLTGLDVEKAFKERGFSTSIVKRRRFFFEELYVMKAELSSRL	soluble
MAKENYSDPNGKLLNSITTFEVNGEEVKLSGNIIRDYLVSGNAEVTDQEIIMFLQLCKYQKLNPFLNEAYLVKFKNTKGPDKPAQIIVSKEAFMKRAETHEQYDGFEAGIIVERNGEVVEIEGAVSLDKDKLLGGWAKVFRKDRSRPVSVRISEREFNKRQSTWNAMPLTMMRKTAVVNAMREAFPDNLGAMYTEEEQGSLQNNETSVQEEIKQNANTEMLDIPAQQIEVPDFKEIREPEHVEMPPIYDEQPSTPPARPY	not soluble
MAKHEQILVLDPPSDLKFKGPFTDVVTTNLKLQNPSDRKVCFKVKTTAPRRYCVRPNSGIIDPGSIVTVSVMLQPFDYDPNEKSKHKFMVQTIFAPPNISDMEAVWKEAKPDELMDSKLRCVFEMPNENDKLND	soluble
MAKITVGTENQAPIEIYYEDHGTGKPVVLIHGWPLSGRSWEYQVPALVEAGYRVITYDRRGFGKSSQPWEGYEYDTFTSDLHQLLEQLELQNVTLVGFSMGGGEVARYISTYGTDRIEKVVFAGAVPPYLYKSEDHPEGALDDATIETFKSGVINDRLAFLDEFTKGFFAAGDRTDLVSESFRLYNWDIAAGASPKGTLDCITAFSKTDFRKDLEKFNIPTLIIHGDSDATVPFEYSGKLTHEAIPNSKVALIKGGPHGLNATHAKEFNEALLLFLKD	not soluble
MAKIVLVLYDAGKHAADEEKLYGCTENKLGIANWLKDQGHELITTSDEEGGNSVLDQHIPDADIIITTPFHPAYITKERIDKAKKLKLVVVAGVGSDHIDLDYINQTGKKISVLEVTGSNVVSVAEHVVMTMLVLVRNFVPAHEQIINHDWEVAAIAKDAYDIEGKTIATIGAGRIGYRVLERLVPFNPKELLYYDYQALPKDAEEKVGARRVENIEELVAQADIVTVNAPLHAGTKGLINKELLSKFKKGAWLVNTARGAICVAEDVAAALESGQLRGYGGDVWFPQPAPKDHPWRDMRNKYGAGNAMTPHYSGTTLDAQTRYAQGTKNILESFFTGKFDYRPQDIILLNGEYVTKAYGKHDKK	soluble
